Assay results reported in US20120023600A1 (Novartis, published 2012).
One block for each binder: values may come before it.

Legend:
[1] = target: T1, recombinant human DKK1 (human, UniProt O94907 32-266); test: SPR (Biacore), DKK1 immobilised on CM5 chip, Fab as analyte
T1 construct: also called Dickkopf-1; rhDKK1
T1 sequence: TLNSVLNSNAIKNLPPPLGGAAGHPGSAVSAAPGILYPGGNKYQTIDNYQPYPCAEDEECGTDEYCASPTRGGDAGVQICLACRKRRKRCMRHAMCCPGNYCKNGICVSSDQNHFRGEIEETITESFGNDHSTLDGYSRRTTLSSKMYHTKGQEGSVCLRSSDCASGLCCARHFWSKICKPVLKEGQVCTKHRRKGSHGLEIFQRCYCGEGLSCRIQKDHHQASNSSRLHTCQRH
Experimental: (§1) Using these clones, kinetic SPR analysis is performed on a. […] The Fab preparations are applied in concentration series of 16-500 nM at a flow rate of 20 μl/min. Association phase is set to 60 s and dissociation phase to 120 s.

[2] = target: T2, cynomolgus DKK1 (cynomolgus monkey (Macaca fascicularis), UniProt A0A7N9IE82 32-266); test: as above
T2 construct: also called cyno DKK1; monkey DKK1 (Novartis)
T2 sequence: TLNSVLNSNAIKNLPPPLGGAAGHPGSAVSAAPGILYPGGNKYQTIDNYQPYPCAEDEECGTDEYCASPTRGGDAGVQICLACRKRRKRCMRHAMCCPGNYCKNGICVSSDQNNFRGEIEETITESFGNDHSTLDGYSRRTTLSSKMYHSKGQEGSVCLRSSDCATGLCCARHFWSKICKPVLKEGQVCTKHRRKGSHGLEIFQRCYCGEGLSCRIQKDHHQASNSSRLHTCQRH
Experimental: as §1

[3] = target: T3, DKK1-APP (human, UniProt O94907 32-266); test: cell-based or functional assay
T3 sequence: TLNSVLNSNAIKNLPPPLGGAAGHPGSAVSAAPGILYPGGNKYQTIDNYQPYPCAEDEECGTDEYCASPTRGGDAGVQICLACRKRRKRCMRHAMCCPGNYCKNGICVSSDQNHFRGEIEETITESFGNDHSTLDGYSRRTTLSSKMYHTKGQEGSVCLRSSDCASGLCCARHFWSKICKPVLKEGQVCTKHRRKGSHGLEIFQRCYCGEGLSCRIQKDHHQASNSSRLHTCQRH

[4] = target: T1, recombinant human DKK1; test: SPR (Biacore), DKK1 immobilised on CM5 chip, Fab as analyte; remark: listed apart in the source
Experimental: as §1

[5] = target: T2, cynomolgus DKK1; test: as above; remark: listed apart in the source
Experimental: as §1

[6] = target: T3, DKK1-APP; test: cell-based or functional assay; remark: listed apart in the source
[7] = target: T1, recombinant human DKK1; test: SPR (Biacore), DKK1 immobilised on CM5 chip, Fab as analyte; remark: listed apart in the source
Experimental: as §1

[8] = target: T2, cynomolgus DKK1; test: as above; remark: listed apart in the source
Experimental: as §1

[9] = target: T4, mouse DKK1 (R&D Systems) (mouse, UniProt O54908 32-272); test: Cross-reactivity mouse (grade in Table 4)
T4 construct: Bought protein
T4 sequence (looked up): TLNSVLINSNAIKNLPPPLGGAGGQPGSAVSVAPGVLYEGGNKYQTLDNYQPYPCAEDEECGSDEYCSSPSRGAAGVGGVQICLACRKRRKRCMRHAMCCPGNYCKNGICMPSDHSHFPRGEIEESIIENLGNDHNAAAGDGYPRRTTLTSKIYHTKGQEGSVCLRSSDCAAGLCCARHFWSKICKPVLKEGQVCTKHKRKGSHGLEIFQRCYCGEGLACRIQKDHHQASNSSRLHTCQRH

[10] = target: T5, carboxyl terminal truncated DKK1 (deltaC, residues 1-185) with C-terminal HA epitope (Homo sapiens (Human), UniProt O94907 32-185); test: immunoprecipitation from conditioned medium of transfected Hek293 cells, protein G beads, SDS-PAGE, anti-HA blot [panel B.]
T5 construct: Secreted into conditioned medium of transfected Hek293 cells; Contains Cys-1 but not Cys-2
T5 sequence: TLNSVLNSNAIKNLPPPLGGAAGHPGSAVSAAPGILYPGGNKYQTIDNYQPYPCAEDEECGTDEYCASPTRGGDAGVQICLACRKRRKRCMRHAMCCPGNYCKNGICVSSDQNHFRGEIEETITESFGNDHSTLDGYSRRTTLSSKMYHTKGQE
From the text: Full-length (FL, containing residues 1-266), carboxyl terminal truncated (ΔC, containing residues 1-185), and amino terminal truncated (ΔN, containing residues 1-60 plus residues 157-266), are fused with an HA epitope at their C termini, and Cloned into a mammalian expression vector under the control of the cytomegalovirus (CMV) promoter. […] 1/10 of total input is loaded as control.

[11] = target: T1, recombinant human DKK1; test: cell-based or functional assay
[12] = target: T6, human DKK2 (human, UniProt Q9UBU2 34-259); test: immunoprecipitation
T6 construct: tested by immunoprecipitation
T6 sequence: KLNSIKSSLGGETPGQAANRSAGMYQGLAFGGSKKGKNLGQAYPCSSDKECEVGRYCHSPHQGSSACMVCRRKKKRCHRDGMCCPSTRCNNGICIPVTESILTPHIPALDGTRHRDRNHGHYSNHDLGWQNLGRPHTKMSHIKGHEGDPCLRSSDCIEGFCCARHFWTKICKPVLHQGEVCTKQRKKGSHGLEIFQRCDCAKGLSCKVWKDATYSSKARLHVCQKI

[13] = target: human DKK3 (human, UniProt Q9UBP4 22-350); test: SPR (Biacore T100); NSB = No Significant binding, not detectable above background
human DKK3, sequence (Q9UBP4 other isoform, or with tags, fused parts or gaps limits assumed): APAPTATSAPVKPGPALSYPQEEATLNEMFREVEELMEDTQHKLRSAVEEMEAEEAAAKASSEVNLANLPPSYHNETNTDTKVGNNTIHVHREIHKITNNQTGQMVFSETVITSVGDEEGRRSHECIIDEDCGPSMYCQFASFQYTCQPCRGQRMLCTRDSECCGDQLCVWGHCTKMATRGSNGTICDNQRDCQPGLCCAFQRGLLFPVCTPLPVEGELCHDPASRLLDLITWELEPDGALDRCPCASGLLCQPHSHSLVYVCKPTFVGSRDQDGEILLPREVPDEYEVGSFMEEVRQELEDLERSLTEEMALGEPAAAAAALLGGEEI

[14] = target: T7, wild type (WT) rhDKK1 (HEK HIS epitope tagged Batch# BTP7757) (human, UniProt O94907 32-266, N-glycosylated (one theoretical N-linked site at amino acid 256)); test: SPR, Biacore T100, CM5 chip; antibody captured on immobilised anti-human IgG1 Fc, rhDKK1 0.195-6.25 nM as analyte; 1:1 binding with mass transport; mean of three experiments with standard deviation [6B]
T7 construct: Made in HEK cells; also called WT DKK1; rhDKK1 (recombinant human DKK1) (Batch BTP7757)
T7 sequence: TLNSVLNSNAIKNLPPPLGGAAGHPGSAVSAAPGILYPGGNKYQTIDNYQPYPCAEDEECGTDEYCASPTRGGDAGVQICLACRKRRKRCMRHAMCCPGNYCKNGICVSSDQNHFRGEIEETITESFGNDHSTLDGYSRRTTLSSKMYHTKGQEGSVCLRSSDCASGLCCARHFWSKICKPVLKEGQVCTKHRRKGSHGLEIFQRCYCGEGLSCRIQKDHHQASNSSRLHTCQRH
Experimental: (§2) FIG. 6. […] Anti-Human IgG1 Fc (Jackson Immuno Research, Cat#109-006-098) is immobilized onto each flow cell, followed by capture of a lead candidate at an expected capture of about 100 RU. […] The normalized data (background subtracted) are fit to a 1:1 binding with mass transport model using Kinetics analysis in BIA evaluation 1.0 software. This experiment is carried out in triplicate, and data presented are the average of these three experiments with standard deviation.

[15] = target: T8, N-linked deglycosylated rhDKK1 (human, UniProt O94907 32-266, N-linked glycan removed with the enzyme PNGase F); test: SPR (Biacore T100)
T8 construct: Same HIS-tagged HEK protein as WT rhDKK1 (Batch BTP7757) after PNGase F treatment; also called N-DEGLY DKK1; DKK1 (N-degly)
T8 sequence: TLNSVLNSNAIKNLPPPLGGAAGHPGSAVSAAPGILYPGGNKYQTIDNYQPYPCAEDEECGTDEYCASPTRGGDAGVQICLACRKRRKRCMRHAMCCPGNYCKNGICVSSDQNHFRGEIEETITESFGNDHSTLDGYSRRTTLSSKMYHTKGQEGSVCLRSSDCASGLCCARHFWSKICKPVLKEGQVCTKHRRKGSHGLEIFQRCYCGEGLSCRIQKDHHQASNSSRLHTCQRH

[16] = target: T9, human DKK4 (human, UniProt Q9UBT3 19-224); test: SPR (Biacore T100)
T9 construct: also called Dickkopf-4
T9 sequence: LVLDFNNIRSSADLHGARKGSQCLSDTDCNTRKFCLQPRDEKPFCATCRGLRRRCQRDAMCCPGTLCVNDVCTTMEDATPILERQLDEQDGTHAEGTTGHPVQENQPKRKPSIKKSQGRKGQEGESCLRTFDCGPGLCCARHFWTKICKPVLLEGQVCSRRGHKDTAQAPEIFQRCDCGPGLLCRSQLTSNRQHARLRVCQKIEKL

[17] = target: T7, wild type (WT) rhDKK1 (HEK HIS epitope …); test: SPR (Biacore T100)
[18] = target: T8, N-linked deglycosylated rhDKK1; test: SPR (Biacore T100); remark: listed apart in the source
[19] = target: T10, rat DKK1 (Novartis) (rat, UniProt A6I0Z0 32-270); test: cell-based or functional assay
T10 sequence: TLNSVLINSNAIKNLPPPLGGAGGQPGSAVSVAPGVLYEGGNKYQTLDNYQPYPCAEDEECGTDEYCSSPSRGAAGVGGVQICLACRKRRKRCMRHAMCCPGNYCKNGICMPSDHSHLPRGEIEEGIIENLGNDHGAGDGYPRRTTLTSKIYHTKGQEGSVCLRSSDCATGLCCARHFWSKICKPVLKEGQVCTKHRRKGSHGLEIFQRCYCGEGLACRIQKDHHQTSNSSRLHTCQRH

[20] = target: T1, recombinant human DKK1; test: cell-based or functional assay; remark: listed apart in the source
[21] = target: T4, mouse DKK1 (R&D Systems); test: cell-based or functional assay
[22] = target: T2, cynomolgus DKK1; test: cell-based or functional assay
[23] = target: T7, wild type (WT) rhDKK1 (HEK HIS epitope …); test: SPR (Biacore T100), antibody captured by anti-human IgG1 Fc, DKK in flow; average of three experiments
Experimental: as §2

[24] = target: T9, human DKK4; test: as above
Experimental: as §2

[25] = target: T10, rat DKK1 (Novartis); test: solution equilibrium titration (SET), ECL (BioVeris), IgG
From the text: (§3) Electrochemiluminescence (ECL) based affinity determination in solution and data evaluation are basically performed as described by [Haenel et al., 2005], the binding fit model is applied as modified according to [Piehler et al., 1997]). […] Biotinylated human. […] Subsequently, the concentration of unbound. IgG is quantified via ECL detection using the M-384 SERIES® analyzer (BioVeris, Europe).

[26] = target: T1, recombinant human DKK1; test: as above
From the text: as §3

[27] = target: T4, mouse DKK1 (R&D Systems); test: as above
From the text: as §3

[28] = target: T2, cynomolgus DKK1; test: as above
From the text: as §3

Kd [1]: 1.6 nM
Kd [2]: 1.5 nM
Luciferase reporter assay; EC50 [3]: 39 nM
Kd [4]: 1.6 nM
Kd [5]: 1.5 nM
EC50 [6]: 39 nM
Kd [7]: 1.6 nM
Kd [8]: 1.5 nM
binding result [9]: binds
B1: MOR04455 (Fab, V domains shown)
VH: QVQLVESGGGLVQPGGSLRLSCAASGFTFSSYGMSWVRQAPGKGLEWVSGISGSGSYTYYADSVKGRFTISRDNSKNTLYLQMNSLRAEDTAVYYCARHYMDHWGQGTLVTVSS
VL: DIQMTQSPSSLSASVGDRVTITCRASQDISNYLHWYQQKPGKAPKLLIYGASNLQSGVPSRFSGSGSGTDFTLTISSLQPEDFAVYYCQQYDSIPMTFGQGTKVEIKR
notes: Fab with C-terminal FLAG and 6xHis tags

binding result [10]: no binding
apparent EC50, TCF/LEF luciferase reporter (SuperTopflash, Kremen) assay [11]: 0.16 nM
binding result [12]: no binding
binding result [13]: no binding
koff [14]: 9e-06 s⁻¹
kon [14]: 4.6e+06 M⁻¹ s⁻¹
fold lower affinity than for WT DKK1 [15]: 100 fold
fold lower affinity than for DKK1 [16]: ~100 fold
Kd [17]: 0.00311 nM
koff [17]: 2.32e-05 s⁻¹
kon [17]: 7.45e+06 M⁻¹ s⁻¹
Kd [18]: 0.216 nM
koff [18]: 0.000307 s⁻¹
kon [18]: 1.42e+06 M⁻¹ s⁻¹
Reactivation of wnt3a signaling (TOPFlash) EC50 (pM) [19]: 255 pM
Reactivation of wnt3a signaling (TOPFlash) EC50 (pM) [20]: 80.6 pM
Reactivation of wnt3a signaling (TOPFlash) EC50 (pM) [21]: 60.5 pM
Reactivation of wnt3a signaling (TOPFlash) EC50 (pM) [22]: 54.2 pM
Kd [23]: 0.002 nM
Kd [24]: 0.297 nM
B2: anti-DKK1/4 antibody (antibody, V domains shown)
VH: QVQLVESGGGLVQPGGSLRLSCAASGFTFSSYWMSWVRQAPGKGLEWVSGISYSGSNTHYADSVKGRFTISRDNSKNTLYLQMNSLRAEDTAVYYCARMGIDLDYWGQGTLVTVSS
VL: DIALTQPASVSGSPGQSITISCTGTSSDVGGFNYVSWYQQHPGKAPKLMIHDGSNRPSGVSNRFSGSKSGNTASLTISGLQAEDEADYYCQSWDVSPITAVFGGGTKLTVLG
notes: also called neutralizing anti-DKK1/4 antibody; NVP-anti-DKK1/4 antibody-NX

Kd [25]: 0.016 nM
Kd [26]: 0.017 nM
Kd [27]: 0.01 nM
Kd [28]: 0.007 nM
B3: MOR4910 IgG (antibody, V domains shown)
VH: QVQLVESGGGLVQPGGSLRLSCAASGFTFSSYWMSWVRQAPGKGLEWVSGISYSGSNTHYADSVKGRFTISRDNSKNTLYLQMNSLRAEDTAVYYCARMGIDLDYWGQGTLVTVSS
VL: DIALTQPASVSGSPGQSITISCTGTSSDVGGFNYVSWYQQHPGKAPKLMIHDGSNRPSGVSNRFSGSKSGNTASLTISGLQAEDEADYYCQSWDVSPITAVFGGGTKLTVLG
notes: also called MOR04910 IgG
